These results are taken from publication PMC12345223.

The series deals with T1, ChCpc1;ChAtf1 (Cochliobolus heterostrophus C4 (Tox1+, …, UniProt M2T2C6;M2TIN4 1-465;1-567, |)).
T1 sequence 1: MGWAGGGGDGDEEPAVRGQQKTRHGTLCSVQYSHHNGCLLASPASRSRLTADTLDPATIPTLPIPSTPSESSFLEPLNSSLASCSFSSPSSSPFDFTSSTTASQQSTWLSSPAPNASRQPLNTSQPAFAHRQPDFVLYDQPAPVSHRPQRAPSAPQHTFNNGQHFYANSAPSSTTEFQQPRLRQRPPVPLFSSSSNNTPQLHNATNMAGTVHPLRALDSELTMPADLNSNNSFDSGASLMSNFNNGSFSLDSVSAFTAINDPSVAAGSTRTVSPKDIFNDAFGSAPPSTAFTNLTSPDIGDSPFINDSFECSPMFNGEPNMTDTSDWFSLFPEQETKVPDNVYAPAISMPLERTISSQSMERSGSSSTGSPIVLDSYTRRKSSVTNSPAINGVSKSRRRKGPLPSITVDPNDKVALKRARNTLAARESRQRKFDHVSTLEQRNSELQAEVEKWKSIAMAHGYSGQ
T1 sequence 2: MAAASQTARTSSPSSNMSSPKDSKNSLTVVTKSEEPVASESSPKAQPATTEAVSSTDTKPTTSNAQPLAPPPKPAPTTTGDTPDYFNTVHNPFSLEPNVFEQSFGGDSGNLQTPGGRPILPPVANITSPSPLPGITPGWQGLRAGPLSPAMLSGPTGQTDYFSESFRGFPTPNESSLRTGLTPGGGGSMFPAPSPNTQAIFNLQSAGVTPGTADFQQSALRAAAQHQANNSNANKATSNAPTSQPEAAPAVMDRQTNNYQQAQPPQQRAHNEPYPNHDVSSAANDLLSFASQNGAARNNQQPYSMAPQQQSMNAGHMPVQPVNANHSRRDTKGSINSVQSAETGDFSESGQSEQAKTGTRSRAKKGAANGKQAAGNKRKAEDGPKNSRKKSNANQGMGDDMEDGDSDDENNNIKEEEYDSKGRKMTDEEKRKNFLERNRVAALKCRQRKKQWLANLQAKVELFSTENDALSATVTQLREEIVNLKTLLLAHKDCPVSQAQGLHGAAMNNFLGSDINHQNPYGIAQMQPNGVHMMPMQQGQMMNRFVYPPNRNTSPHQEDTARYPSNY
Kind of series: EMSA; enhanced versus ChCpc1 alone; Light Shift Chemiluminescent EMSA Kit (Beyotime), 20 min at 25°C; 6.5% polyacrylamide gel, 0.5x TBE; binding buffer, salt and pH not stated. Conditions: protein: recombinant;recombinant; tags: His (pET-32a);His (pET32a); copies: 1;1; label: biotin (on forward strand); blunt.

B1: ChATG8 promoter probe (dsDNA)
DNA 1: GGAGAGCGTGAAGGAGAGAGACGGGATGAGTCAAAGTACCCAGGTAGCCAGGTCATGGGA
DNA 2: TCCCATGACCTGGCTACCTGGGTACTTTGACTCATCCCGTCTCTCTCCTTCACGCTCTCC
For the molecule B1, the binding result is on record as “binds”.

B2: ChARG4 promoter probe (dsDNA)
DNA 1: CATTGGCGTTTGGGACTGAATTACAATGAGTAATGAAATAACTCACACCACAAAGCAGTA
DNA 2: TACTGCTTTGTGGTGTGAGTTATTTCATTACTCATTGTAATTCAGTCCCAAACGCCAATG
For the molecule B2, the binding result is given as “binds”.
